In patent US8865473B2, “Luminescence detecting apparatuses and methods” (Applied Biosystems, LLC, priority 1999, dated 2014):
pEC50: −log10 of the molar value.

Target: T1, Orexin 2 Receptor (Homo sapiens, UniProt O43614)
T1 construct: host or cells: CHO cells co-expressing aequorin (CHO-Aeq-OX2-A2)
T1 sequence (O43614 1-444): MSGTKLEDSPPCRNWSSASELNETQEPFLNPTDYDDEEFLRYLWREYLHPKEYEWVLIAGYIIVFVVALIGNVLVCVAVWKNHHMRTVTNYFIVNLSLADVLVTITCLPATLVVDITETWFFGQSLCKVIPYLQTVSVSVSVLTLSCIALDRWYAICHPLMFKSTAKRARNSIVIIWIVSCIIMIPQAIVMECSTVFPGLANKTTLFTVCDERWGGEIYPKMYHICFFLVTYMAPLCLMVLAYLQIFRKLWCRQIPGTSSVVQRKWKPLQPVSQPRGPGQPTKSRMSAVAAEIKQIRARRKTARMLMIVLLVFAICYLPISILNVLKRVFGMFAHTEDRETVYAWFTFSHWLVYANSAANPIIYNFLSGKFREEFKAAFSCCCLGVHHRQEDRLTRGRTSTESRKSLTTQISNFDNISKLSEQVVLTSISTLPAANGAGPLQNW
Assay: Aequorin luminescence agonist assay in CHO-Aeq-OX2-A2 cells on NorthStar
Assay type: cell-based
Details: coelenterazine h +/- 0.6 μM BAPTA-AM 4 hours, light integrated 20 seconds, unchanged in the presence of BAPTA-AM, read-out: reported EC50 for Orexin B
Method: CHO-Aeq-OX2-A2 cells (Euroscreen) were loaded with coelenterazine h+/−0.6 μM BAPTA-AM for 4 hours. The peptide agonist Orexin B was injected into the wells, and the emitted light was integrated for 20 seconds on the NorthStar™.

pEC50: 9.12
Substance: Orexin B
